The record followed here is patent US11110182B2, “Multifunctional RNA nanoparticles and methods for treating cancer and therapeutic resistant cancer” (University of Cincinnati, priority 2016, dated 2021).

The data set has as its system BT474 orthotopic xenograft tumors. Description: In vivo targeting and biodistribution imaging of AF647-labeled nanoparticles. More on the design: species or system mice. As to conditions: for signals in liver and kidney, biodistribution: AF647 fluorescence of excised organs; for accumulation in the xenograft tumors, biodistribution of excised organs and tumors: AF647 fluorescence of excised tumors; for localization in frozen tumor sections (penetration to tumor cells): confocal microscopy, microvessels stained with anti-CD31. As for the experimental part:
FIG. 2A) Confocal microscopy analyses of the internalization of AF647-labeled control and pRNA-HER2apt-siMED1 nanoparticles by BT474 cells. Scale bar: 10 μm. FIG. 2B) Flow cytometry assays of the cellular uptake of AF647-labeled control and pRNA-HER2apt-siMED1 nanoparticles by BT474 cells. FIG. 2C) IVIS Lumina live imaging of BT474 orthotopic xenograft mice 24 hrs after i.v. injection of indicated AF647-labeled pRNA nanoparticles (10 mg/Kg). FIG. 2D) Major organs and tumors of above mice were excised and imaged for AF647 fluorescence. FIG. 2E) Frozen tumor sections were examined for localization of AF647-labeled pRNA nanoparticles (red) using confocal microscopy. The blood vessels were stained with anti-CD31 primary antibody and Alexa488-conjugated secondary antibody (green). The nuclei were stained with DAPI (blue). Scale bar: 50 μm. FIG. 2F) The fluorescence intensity of AF647-labeled pRNA nanoparticles (red) in frozen tumor sections was quantified with Image-pro Plus software.
Migration and metastasis assay. The 8-μm-pore-size polycarbonate membrane, which separates the two chambers of a 6.5-mm Transwell (Costar), was coated with or without 1:8 DMEM-diluted Matrigel (Corning). Transwell assay was performed as previously described.^57 Briefly, BT474 cells were treated with pRNAs alone or together with 4-hydroxy-tamoxifen (4-OHT) for 48 h and starved with serum-free DMEM containing 0.2% BSA overnight. On the next day, cells were collected and 2×10^5 cells were seeded to the upper chamber of Transwell. The lower chamber was filled with 600 μL DMEM medium containing 10% FBS. After incubation at 37° C. for 24 h, cells on the membranes were fixed and stained with 0.1% crystal violet in 20% ethanol solution. Cells at top side of membranes were removed completely, and cells at the bottom side were examined with an Olympus SZX12 microscope and counted. • Mammosphere culture and breast cancer stem cell analyses. BT474 cells were treated with pRNAs for 48 h. Then, cells were suspended in DMEM/F12 medium supplemented with 1×B27 (Thermo Fisher), 20 ng/mL bFGF and 20 ng/mL EGF (R&D), and added into 24-well ultralow attachment plates. After treatment with or without 1 μM 4-OHT for 7 days, mammosphere formation was recorded using an Axiovert S100 TV inverted microscope (Zeiss). Xenograft tumor tissues were cut into small pieces and digested with trypsin and collagenase at 37° C. for 1 h, and tumor cells were collected and rinsed with pre-cold PBS. All cells were stained with FITC-conjugated anti-CD44 antibody and PE-conjugated anti-CD24 antibody (BD Pharmingen) in the dark on ice for 30 min. After resuspension with 0.5 mL PBS buffer, CD44^+/CD24^−/low cell population was analyzed by flow cytometry. • Orthotopic xenograft breast tumor mouse model, in vivo imaging and anti-tumor therapy. Six-week-old female athymic nude mice were purchased from Charles River Laboratories, and all animal procedures were performed under IACUC-approved protocols at the University of Cincinnati. Athymic nude mice were orthotopically injected with 1×10^7 BT474-luc cells mixed with matrigel into the fat pads of the forth pair of mammary glands. When the tumor sizes reached 100-150 mm^3, the mice were randomly divided into four groups (4/group) and intravenously (i.v.) injected with pRNAs (4 mg/Kg) once a week for three weeks. For tamoxifen treatments, 0.5 mg tamoxifen (Sigma) dissolved in sesame oil was intraperitoneally (i.p.) injected into mice 5 days a week for three weeks. The tumor volume was monitored every 3 days, and tumor size was calculated using the formula: volume=0.5×(width)^2×(length). For in vivo pRNA nanoparticle targeting and tumor imaging, mice were i.v. injected with AF647-conjugated pRNA nanoparticles or i.p. injected with D-luciferin and imaged using the IVIS Lumina imaging system with Living Images 3.0 software (Caliper Life Sciences). […]

B1: pRNA-HER2apt-siMED1: 3-WJ pRNA nanoparticle bearing a HER2-targeting RNA aptamer and two different MED1 siRNAs; strands p1 SEQ ID NO: 3, p2 SEQ ID NO: 4 (nucleic acid)
chain 1: GGACAGUGAAAGUGAGUCAAAGGAUCAAUCAUGGCCAAAGAUGUUACUUUGAGAGCCUU
chain 2: GGCUCUCAAAGUAACAUCUAAGGCCAUGUGUAUGUGGGGGGAGGACGAUGCGGUCUGCUGUGCUUGAUAUGCCCCAGACGACUCGCCCCCCACAUACUUUGUUGAUCCAAUGACUCACUUUCACUGUCCUU
modifications: 2'-F modification; third strand may lack entry; pRNA-HER2apt-siMED1, p1; pRNA-HER2apt-siMED1, p2
As to B1, the “signals in liver and kidney, biodistribution” value is reported as “low levels of residual signals”; the “accumulation in the xenograft tumors, biodistribution of excised organs and tumors” value is on record as “predominant accumulation”; the “localization in frozen tumor sections (penetration to tumor cells)” value was “very effectively penetrated to tumor cells”. The “accumulation in the area of the xenograft tumor, live animal imaging” value (AF647-conjugated, 10 mg/Kg i.v., 24 hrs) is listed as “strongly accumulated”.

B2: pRNA-HER2apt^mut-siMED1: control pRNA nanoparticle with mutant HER2 aptamer; strands p1 SEQ ID NO: 5, p2 SEQ ID NO: 6 (nucleic acid)
chain 1: B1 chain 1
chain 2: GGCUCUCAAAGUAACAUCUAAGGCCAUGUGUAUGUGGGAUGAGGAGUAUGAAGAUACCUGUACUUGAUAUGCCCCAGACGACAUUCCCCCCACAUACUUUGUUGAUCCAAUGACUCACUUUCACUGUCCUU
modifications: pRNA-HER2apt(mut)-siMED1, p1; pRNA-HER2apt(mut)-siMED1, p2
For B2, the “signals in liver and kidney, biodistribution” value was “low levels of residual signals”; the “accumulation in the xenograft tumors, biodistribution of excised organs and tumors” value was “not”; the “localization in frozen tumor sections (penetration to tumor cells)” value is given as “remained in the microvessels”.
